Reference: article PMC5650921

Key:
[1] = target: sEGFR501 1-501 (Homo sapiens) (UniProt P00533); details: cited from earlier work
[2] = target: EREG/sEGFR501 complex (human) (UniProt P00533); experiment: small-angle X-ray scattering

Substance | Kd [1] | Kd [2]
sEGFR501 1-501 (from UniProt P00533) | 3000 nM | –
EREG/sEGFR501 complex (from UniProt P00533 25-525; O14944 56-116) | – | > 200000 nM
